This passage reports Meas. ratio (noFAD/FAD), fluorescence and noFAD/FAD results from patent publication US20190064177A1, “INCORPORATING COMPETITIVE BINDING INFORMATION INTO MOLECULAR ARRAY ANALYSIS TO GENERATE FUNCTION NETWORKS OF INTERACTIONS” (ARIZONA BOARD OF REGENTS ON BEHALF OF ARIZONA STATE …, priority 2017, published 2019).

Assay [1] addresses Diaphorase. Briefly: peptide array, 1 uM diaphorase, measured binding without FAD / with FAD.
For assay [2], the target named is Diaphorase. Briefly: peptide array, 1 uM labeled diaphorase, no FAD.
Assay [3] concerns the target Diaphorase. The experiment in a line: peptide array, 10 uM labeled diaphorase, no FAD.
In assay [4] the target is Diaphorase. The experiment in a line: peptide array, 1 uM labeled diaphorase, with FAD.
Assay [5] addresses Diaphorase. Briefly: peptide array, 10 uM labeled diaphorase, with FAD.
Assay [6] has as its target Diaphorase. Briefly: peptide array, 1 uM diaphorase, binding without FAD / with FAD.
Assay [7] has as its target Diaphorase. Briefly: peptide array, 10 uM diaphorase, binding without FAD / with FAD.
Assay [8] has as its target Diaphorase. Briefly: peptide array, 10 uM labeled diaphorase, no FAD; detector saturation.

With ARWQQYKFGGSG, the Meas. ratio (noFAD/FAD) with Diaphorase [1] worked out at 2.18.

On to KHSFQKELGGSG, for which the fluorescence was 2090 with Diaphorase [2], 2390 in the assay with Diaphorase [3], 728 in the assay with Diaphorase [4] and 300 with Diaphorase [5]. In addition, the values for the noFAD/FAD in the assay with Diaphorase [6] and in the assay with Diaphorase [7] were 2.87 and 0.794, respectively.

Take NHLLEGAFVSEGS: the Meas. ratio (noFAD/FAD) in the assay with Diaphorase [1] was 0.77.

WRVQAWRPNKVEG: the Meas. ratio (noFAD/FAD) with Diaphorase [1] is 2.43.

In the case of YRRPWKFRDGSG, the Meas. ratio (noFAD/FAD) in the assay with Diaphorase [1] is 1.74.

Take YRRFPYFPGGSG: in the assay with Diaphorase [1], the Meas. ratio (noFAD/FAD) came out at 1.6.

Take NRKFYWNAGGSG: the Meas. ratio (noFAD/FAD) with Diaphorase [1] was 2.1.

Regarding RVLPYHGWKWFSG, the Meas. ratio (noFAD/FAD) with Diaphorase [1] stood at 2.45.

On to YWRFYANWAQLFG, for which the Meas. ratio (noFAD/FAD) in the assay with Diaphorase [1] turned out to be 2.56.

With ALDKLSGLWKHVG, the Meas. ratio (noFAD/FAD) with Diaphorase [1] was determined as 0.69.

RQRYPKVSGGSG: the Meas. ratio (noFAD/FAD) with Diaphorase [1] came out at 1.71.

For YRGAGKNKGGSG, the Meas. ratio (noFAD/FAD) with Diaphorase [1] was 1.49.

On to PVPWRHVNYAHSG, for which the Meas. ratio (noFAD/FAD) in the assay with Diaphorase [1] stood at 0.69.

With YRWGAKHYGGSG, in the assay with Diaphorase [1], the Meas. ratio (noFAD/FAD) came out at 2.06.

Take RYNLYKPSDGSG: the fluorescence with Diaphorase [2] came to 3570; with Diaphorase [3], 50300; with Diaphorase [4] it was 1250; in the assay with Diaphorase [5], 18200. Further, the noFAD/FAD was 2.87 with Diaphorase [6] and 2.77 with Diaphorase [7].

Regarding VFGVLSQVARDGSG, the fluorescence came out at 4250 in the assay with Diaphorase [2], 26200 in the assay with Diaphorase [3], 6640 in the assay with Diaphorase [4] and 51500 in the assay with Diaphorase [5]. Also, the noFAD/FAD in the assay with Diaphorase [6] turned out to be 0.64; with Diaphorase [7], 0.509.

For the molecule VLAYKLQVDGSG, the Meas. ratio (noFAD/FAD) in the assay with Diaphorase [1] stood at 0.68.

Consider YRYGWQKYGGSG, for which the Meas. ratio (noFAD/FAD) with Diaphorase [1] is 2.43.

In the case of FNKVLEYKWLFEG, the Meas. ratio (noFAD/FAD) with Diaphorase [1] came out at 0.73.

As to KEDKVFGFRFDGS, in the assay with Diaphorase [1], the Meas. ratio (noFAD/FAD) is 0.7.

Turning to WHLLGWVGYGGSG, the Meas. ratio (noFAD/FAD) with Diaphorase [1] amounted to 0.7.

Regarding WRLNPLQFGGSG, in the assay with Diaphorase [1], the Meas. ratio (noFAD/FAD) is 2.54.

As for FYNFGYQDLEDGS, the Meas. ratio (noFAD/FAD) with Diaphorase [1] came out at 0.75.

On to DYFEGQLNHLGGS, for which the Meas. ratio (noFAD/FAD) with Diaphorase [1] stood at 0.75.

Regarding RQAYLFGGSG, the fluorescence with Diaphorase [2] is 14500; with Diaphorase [4], 4480; with Diaphorase [5], 64000; with Diaphorase [8], over 65500. For the same molecule, the noFAD/FAD with Diaphorase [6] was 3.23; in the assay with Diaphorase [7] it was 1.02.

PVDFGYQLKVSGS: the Meas. ratio (noFAD/FAD) in the assay with Diaphorase [1] stood at 0.66.

LFDNVLEFVEDGS: the Meas. ratio (noFAD/FAD) in the assay with Diaphorase [1] came out at 0.69.

For WRPFWKNLGGSG, the Meas. ratio (noFAD/FAD) with Diaphorase [1] was determined as 2.18.

In the case of YQRHQNVFAKSGG, the Meas. ratio (noFAD/FAD) with Diaphorase [1] worked out at 2.56.

For PQKSNHFHEAQKR, the Meas. ratio (noFAD/FAD) with Diaphorase [1] amounted to 2.41.

Turning to GYHLFEKLYFDGS, the Meas. ratio (noFAD/FAD) with Diaphorase [1] stood at 0.7.

With YRFAQYKGQKDGSG, the fluorescence in the assay with Diaphorase [2] was 4470; with Diaphorase [3] it was 56900; in the assay with Diaphorase [4], 1600; with Diaphorase [5] it was 19900. Besides, the figures for the noFAD/FAD with Diaphorase [6] and with Diaphorase [7] were 2.78 and 2.86, respectively.

As for AFNVWQYFEGGSG, the Meas. ratio (noFAD/FAD) in the assay with Diaphorase [1] was 0.73.

Take PRFNWKPYGGSG: the Meas. ratio (noFAD/FAD) in the assay with Diaphorase [1] amounted to 2.44.

RAQYAQYLFGGSG: the fluorescence with Diaphorase [2] was 8720; with Diaphorase [4] it was 3160; in the assay with Diaphorase [5] it was 55400; in the assay with Diaphorase [8] it was over 65500. For the same molecule, the noFAD/FAD stood at 2.76 with Diaphorase [6] and 1.18 with Diaphorase [7].

In the case of VSWVFGLGHEGGS, the Meas. ratio (noFAD/FAD) with Diaphorase [1] came out at 0.71.

In the case of RWYKNGGSG, the fluorescence with Diaphorase [2] is 10200; in the assay with Diaphorase [3], 64800; with Diaphorase [4] it was 3660; with Diaphorase [5], 46300. Further, the noFAD/FAD with Diaphorase [6] was 2.78; with Diaphorase [7], 1.4.

For the molecule FLQFLGGSG, the Meas. ratio (noFAD/FAD) with Diaphorase [1] was 0.87.

RYAYFQHLGGSG: the fluorescence with Diaphorase [2] was 13600; with Diaphorase [4], 4970; with Diaphorase [5], 64100; with Diaphorase [8], over 65500. In addition, the noFAD/FAD stood at 2.73 in the assay with Diaphorase [6] and 1.02 with Diaphorase [7].

As for HVYGLNLFDGSG, the Meas. ratio (noFAD/FAD) with Diaphorase [1] worked out at 0.72.

Consider RFGQNLPLGGSG, for which the fluorescence in the assay with Diaphorase [2] amounted to 5800; with Diaphorase [3] it was 63500; with Diaphorase [4], 2100; in the assay with Diaphorase [5], 34700. The noFAD/FAD with Diaphorase [6] is 2.76; in the assay with Diaphorase [7] it was 1.83.

Regarding AQVAVDGFYVDGSG, the fluorescence is 2010 with Diaphorase [2], 12600 in the assay with Diaphorase [3], 3090 with Diaphorase [4] and 22700 in the assay with Diaphorase [5]. The noFAD/FAD with Diaphorase [6] was found to be 0.652; in the assay with Diaphorase [7], 0.555.

On to SGVLQFFGGSG, for which, in the assay with Diaphorase [1], the Meas. ratio (noFAD/FAD) was determined as 0.7.

On to DANLFGYFKDGGS, for which, in the assay with Diaphorase [1], the Meas. ratio (noFAD/FAD) stood at 0.7.

Take EGFGYLFAHVGGS: in the assay with Diaphorase [1], the Meas. ratio (noFAD/FAD) stood at 0.78.

As for WRSVYVPNGGSG, the Meas. ratio (noFAD/FAD) with Diaphorase [1] worked out at 2.35.

In the case of AWVELEYQYVFEG, in the assay with Diaphorase [1], the Meas. ratio (noFAD/FAD) turned out to be 0.74.

On to WLDLGVFPYQHLGSG, for which the fluorescence worked out at 2200 with Diaphorase [2], 25700 in the assay with Diaphorase [3], 3430 with Diaphorase [4] and 33600 with Diaphorase [5]. Further, the noFAD/FAD with Diaphorase [6] amounted to 0.641; with Diaphorase [7], 0.765.
